7 molecules from patent publication US6623741 can be followed below.

“And” between values parts separate entries of the source, which are not always exact repeats. Equal values may be shown once. Read-outs that look alike come from different tables or passages of the source.

In test [1] the target is T1772 (respiratory syncytial virus (strain A2)).
For test [2] the target is unchanged. The experiment in a line: sedimentation equilibrium (self-association).
For test [3] the target is unchanged. The experiment in a line: sedimentation equilibrium, value at 25 µM, single ideal species fit (self-association); monomer 5393.
The target of test [4] is T1584 (respiratory syncytial virus (strain A2)). As to the kind of experiment: sedimentation equilibrium, 35 µM peptide (self-association).
The target is the same in test [5]. The experiment in a line: sedimentation equilibrium, 35 µM peptide, single ideal species fit (self-association); monomer 5506.
The target in test [6] is T1623 (respiratory syncytial virus (strain A2)). As to the kind of experiment: sedimentation equilibrium, 35 µM peptide (self-association).
For test [7] the target is unchanged. As to the kind of experiment: sedimentation equilibrium, 35 µM peptide, single ideal species fit (self-association); monomer 5750.
Test [8] deals with T1582 (respiratory syncytial virus (strain A2)). The experiment in a line: sedimentation equilibrium, 35 µM peptide (self-association).
Test [9] shares this target. As to the kind of experiment: sedimentation equilibrium, 35 µM peptide, single ideal species fit (self-association); monomer 4897.
The target of test [10] is T1, MF-IV (MF5.1): E. coli maltose binding protein fused to RSV F protein residues 142-302 (E. coli; respiratory syncytial virus (strain A2)), P03420.
T1 chain: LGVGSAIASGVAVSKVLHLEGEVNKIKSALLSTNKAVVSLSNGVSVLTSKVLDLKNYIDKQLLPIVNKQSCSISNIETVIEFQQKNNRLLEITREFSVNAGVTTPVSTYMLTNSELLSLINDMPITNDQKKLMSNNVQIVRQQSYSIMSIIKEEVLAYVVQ

Test [11] addresses T1, MF-IV (MF5.1): E. coli maltose binding …. As to the kind of experiment: competitive binding assay (B50) on the MF5.1 fusion protein; reference T112.
Test [12] has as its target T1772 (respiratory syncytial virus (strain A2)). The source holds these as a separate data set.
Test [13] has the same target. The source holds these as a separate data set.
Test [14] addresses T112 (respiratory syncytial virus (strain A2)).
For test [15], the target named is T1772 (respiratory syncytial virus (strain A2)). This is another data set of the same source.
Test [16] shares this target. The source holds these as a separate data set.
For test [17], the target named is T1581 (respiratory syncytial virus (strain A2)). The experiment in a line: sedimentation equilibrium, 35 µM peptide (self-association).
For test [18] the target is unchanged. The experiment in a line: sedimentation equilibrium, 35 µM peptide, single ideal species fit (self-association); monomer 5007.

AVSKVLHLEGEVNKIKSALLSTNKAVVSLSNGVSVLTSKVLDLKNYIDKQ (modifications not checked) [T1772]: the weight-averaged molecular weight in [1] amounted to 12900 Da; in test [3], 12900 g/mol. Also, in [2], the N-mer (weight-averaged molecular weight / monomer molecular weight) stood at 2.4.

B1: T1584 (peptide)
peptide: AVSKVLHLEGEVNKIKSALLSTNKAVVSLSNGVSVLTSKVLDLKNYIDKQL
modifications: not checked
The molecule B1 yielded a N-mer (weight-averaged molecular weight / monomer molecular weight) in test [4] of 2.1. Further, the weight-averaged molecular weight in [5] is 11700 g/mol.

B2: T1623 (peptide)
peptide: SGVAVSKVLHLEGEVNKIKSALLSTNKAVVSLSNGVSVLTSKVLDLKNYIDKQL
modifications: not checked
On to B2, for which the N-mer (weight-averaged molecular weight / monomer molecular weight) in [6] is 2.2. Besides, the weight-averaged molecular weight in test [7] came to 12900 g/mol.

On to VLHLEGEVNKIKSALLSTNKAVVSLSNGVSVLTSKVLDLKNYIDK (modifications not checked) [T1582], for which the N-mer (weight-averaged molecular weight / monomer molecular weight) in test [8] came out at 1.5. This molecule also gave a weight-averaged molecular weight in [9] of 7520 g/mol.

Molecule DEFDASISQVNEKINQSLAFIRKSDELL (modifications not checked) [T67] showed a binding affinity in [10] of 5 nM. The molecule also gave a fold lower binding affinity than T112 in [11] of 5 fold.

Consider VFPSDEFDASISQVNEKINQSLAFIRKSDELLHNV (modifications not checked) [T112], for which the weight-averaged molecular weight of the mixture in test [12] is 15300 Da and 22000 Da and 17300 Da; in [13] it was 21100 Da. In test [14], this molecule displayed a weight-averaged molecular weight of 3980 Da. In test [15], the helicity of the peptide mixture is 86%. In addition, in test [16], the melting temperature (Tm) of the peptide mixture came to 87 ° C.

As to VLHLEGEVNKIKSALLSTNKAVVSLSNGVSVLTSKVLDLKNYIDKQ (modifications not checked) [T1581], the N-mer (weight-averaged molecular weight / monomer molecular weight) in test [17] was 1.8. Further, the weight-averaged molecular weight in [18] turned out to be 9120 g/mol.
